From patent US20100233154A1, “TARGETED BINDING AGENTS DIRECTED TO HEPARANASE AND USES THEREOF 463” (MedImmune Limited, priority 2008, published 2010)

Molecular target: cynomolgus heparanase (cynomolgus)
Experiment: cross species capture ELISA, heparanase captured by rabbit anti-heparanase antibody, exhaustive supernatant 1:5, anti-human IgG Fc detection

Chain of cynomolgus heparanase (cynomolgus) (chain, as listed by the source): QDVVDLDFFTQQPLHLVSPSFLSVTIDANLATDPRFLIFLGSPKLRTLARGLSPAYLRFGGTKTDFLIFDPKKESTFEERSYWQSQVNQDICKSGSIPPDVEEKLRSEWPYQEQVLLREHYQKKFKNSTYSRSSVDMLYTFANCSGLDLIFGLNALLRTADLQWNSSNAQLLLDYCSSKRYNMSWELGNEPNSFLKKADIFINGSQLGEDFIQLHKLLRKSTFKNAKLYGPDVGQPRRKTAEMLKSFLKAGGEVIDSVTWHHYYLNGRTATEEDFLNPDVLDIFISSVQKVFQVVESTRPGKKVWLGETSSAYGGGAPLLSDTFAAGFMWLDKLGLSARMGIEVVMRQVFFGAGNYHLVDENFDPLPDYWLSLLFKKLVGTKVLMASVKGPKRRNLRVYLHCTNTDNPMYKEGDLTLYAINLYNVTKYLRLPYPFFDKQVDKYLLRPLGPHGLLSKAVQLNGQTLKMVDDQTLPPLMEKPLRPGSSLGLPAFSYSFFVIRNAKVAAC

OD, binding to heparanase (Cyno): 0.11 OD units
B1: monoclonal antibody 15A1.2 (antibody, V domains shown)
VH: QVQLVQSGAEVKKPGASVKVSCKVSGYTLTELSMHWVRQAPGKGLEWMGGFDPEDGETIFAQKFQGRVTMTEDTSTDTAYMELSSLRSEDTAVYYCATGLRFLEWFLWGWDVWGQGTTVTVSS
VL: DIQMTQSPSSVSASVGDRVTITCRASQGISNWLAWYQQTPGKAPQLLIYGASSLQSGVPSRFSGSGSGTDFTLTISSLQPEDFATYYCQQADSFPPTFGQGTKVEIK
